Test results as given in patent US12497460B2, “Anti-MSR1 antibodies and methods of use thereof” (REGENERON PHARMACEUTICALS, INC., priority 2018, dated 2025).
Where two headings read alike, the source gives them in different places. Marks after values point to notes of the source that are not given here.

Experiments:
[1] = system: LPS-induced IL-1β release in differentiated THP-1 cells; assay: LPS-mediated IL-1β release assay; assay type: cell-based, human; details: for IC50: 100 ng/ml LPS for 5 hours, read-out: IC50, inhibition of LPS-induced IL-1β secretion
Protocol: To test the anti-inflammatory properties of anti-MSR1 antibody-steroid conjugates in vitro, a lipopolysaccharide (LPS)-mediated IL-1β release assay was performed. For the assay, THP-1 cells were seeded onto 96 well plates at 40,000 cells/well in media containing RPMI supplemented with 10% FBS and pencillin/streptomycinin and differentiated with 200 nM Phorbol Myristate Acetate (PMA) for 3 days. After the 3-day differentiation period, three-fold serial dilutions of antibody drug conjugates, unconjugated antibodies, or free payloads in fresh media were added to the cells at final concentration ranging from 100 nM to 0.01 nM. Media alone served as a blank control. Subsequently at 24, 48, or 72 hours later, cells were treated with 100 ng/ml LPS (InVivoGen, Cat #tlrl-eklps) for 5 hours. The cell media was then collected, and IL-1β levels were measured using a V-PLEX Proinflammatory Panel 1 human kit (Meso Scale Diagnostics, Cat #15049D-2) as per manufacturer's instructions. Subsequently, the plate was read on a Meso Scale Diagnostics instrument.
IC50 values were determined from a four-parameter logistic equation over a 10-point response curve (GraphPad Prism). All IC50 values are expressed in M (molar) concentration. The IC50 values and IL-1β amount at the maximum concentration of antibody-steroid conjugates or controls are shown in Table 22 each of the time point tested.

[2] = system: Msr1^hu/hu ApoE^−/− mice, peritoneal cells; assay: Ex vivo LPS-induced cytokine production by peritoneal cells after in vivo dosing; design: species or system mouse; details: for Cytokine IL-6 / Cytokine KC-GRO / Cytokine TNF-α: ex vivo LPS
Protocol: To examine the anti-inflammatory effect of the anti-MSR1 antibody-steroid conjugates, an ex-vivo and in vivo LPS-induced inflammatory immune response model was performed.
Generation of a mouse inflammatory immune response model. Mice homozygously expressing human MSR1 extracellular domain in place of the mouse MSR1 extracellular domain and with a homozygous deletion of the ApoE gene were utilized (resulting mice referred to as Msr1^hu/hu ApoE^−/− mice).
Assay protocol for ex vivo LPS-induced responses. In ex vivo LPS challenge experiments, mice were intraperitoneally administered with 10 μL/g of anti-MSR1 antibody-steroid conjugates (H1H21234N-N297Q-LP13), isotype control steroid conjugate (Isotype control-LP13), unconjugated anti-MSR1 antibody (H1H21234N-N297Q) and isotype control antibodies at different time points (24, 48, and 72 hours) prior to harvesting the peritoneal cells from peritoneal cavity. […] All mice were sacrificed at 0 hour time point and peritoneal cells were obtained from the peritoneum by the peritoneal lavage technique. In brief, 5 mL of ice cold 1×PBS (ThermoFisher Scientific, Cat #20012027) containing 2% BSA (Gibco, Cat #A9576) and 0.6 mM EDTA (ThermoFisher Scientific, Cat #15575020) were injected into the peritoneal cavity using 27 g needle. […] The resuspended cells were plated at 500,000 cells per well in 24-well tissues culture plates and incubated with or without 10 ng/mL of LPS for 18 hours.
Measurement of cytokines at 18 hours post-LPS ex vivo challenge. Supernatants were collected into 96-well round bottom tissue culture plates at 18 hours post-ex vivo LPS challenge and stored at […] until further analysis. Cytokine concentrations in the supernatants were measured using a Proinflammatory Panel 1 (mouse) multiplex immunoassay kit (MesoScale Diagnostics, Cat #K15048D) according to manufacturer's instructions. Electrochemiluminescence was read on a Meso Scale Diagnostics SECTOR® instrument. Data analysis was performed using GraphPad Prism™ software. Statistical significance within the groups was determined by one-way Anova with Turkey's multiple comparison post-test (*p<0.01; **p<0.001; ***p<0.0001).

Msr1^hu/hu ApoE^−/− mice = assay: In vivo LPS-induced cytokine production in serum; design: species or system mouse; details: i.p. dosing 24 hours before LPS challenge; 2 hours post LPS challenge
[3] = target: T1, RAW264.7 cells (MSR1 positive) (Mus musculus, UniProt P30204); assay: Flow cytometry binding to cell surface-expressed mouse MSR1; assay type: cell-based; details: 10 μg/mL antibody
T1 construct: using MSR1 positive RAW264.7 cells (ATCC, Catalog #TIB-71); host or cells: RAW264.7
T1 sequence (P30204 1-458): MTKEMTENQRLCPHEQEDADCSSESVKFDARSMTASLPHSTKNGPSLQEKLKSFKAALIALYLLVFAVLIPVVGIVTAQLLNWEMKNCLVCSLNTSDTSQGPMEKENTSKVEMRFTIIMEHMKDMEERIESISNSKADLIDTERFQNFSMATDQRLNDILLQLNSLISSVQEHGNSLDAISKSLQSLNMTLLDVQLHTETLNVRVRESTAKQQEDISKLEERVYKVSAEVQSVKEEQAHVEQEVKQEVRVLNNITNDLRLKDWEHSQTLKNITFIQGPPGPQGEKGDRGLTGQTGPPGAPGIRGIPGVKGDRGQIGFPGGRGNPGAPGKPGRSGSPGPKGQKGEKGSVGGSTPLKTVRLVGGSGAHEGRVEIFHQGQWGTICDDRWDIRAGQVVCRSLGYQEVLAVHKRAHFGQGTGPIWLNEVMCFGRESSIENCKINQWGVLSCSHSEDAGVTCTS
Protocol: To block binding to Fc receptors, RAW264.7 cells were incubated for 30 minutes at 4° C. with 500 μg/mL mouse IgG (Jackson ImmunoResearch, Cat #015-000-003) diluted in staining buffer, while B16F10.9 cells remained in staining buffer. Following Fc receptor blocking, 10 μg/mL of anti-MSR1 antibodies or an isotype control antibody were added to the cells and were subsequently incubated for 30 minutes on ice. […] The signal to noise (S/N) was determined by calculating the ratio of the anti-MSR1 antibodies or the control antibodies MFI to the unstained sample MFI (Table 11).

[4] = administered 24 hours before peritoneal cell isolation
[5] = administered 48 hours before peritoneal cell isolation
[6] = administered 72 hours before peritoneal cell isolation

Molecule	IC50 ([1]; 24-hour time point) [nM]	IC50 ([1]; 48-hour time point) [nM]	IC50 ([1]; 72-hour time point) [nM]	IL1beta released at max concentration tested ([1]; 24 hour treatment before LPS) [pg/mL]	IL1beta released at max concentration tested ([1]; 48 hour treatment before LPS) [pg/mL]	IL1beta released at max concentration tested ([1]; 72 hour treatment before LPS) [pg/mL]	Cytokine IL-6 [2, 4]	Cytokine KC-GRO [2, 4] [ng/mL]	Cytokine TNF-α [2, 4]	Cytokine KC-GRO [2, 5]	Cytokine TNF-α [2, 5]	Cytokine IL-6 [2, 6]	Cytokine KC-GRO [2, 6] [ng/mL]	Cytokine TNF-α [2, 6]	effect on ex vivo LPS-induced cytokine production (IL-6, KC-GRO, TNF-α) by peritoneal cells ([2]; i.p. dosing 24, 48, 72 hours (conjugates, antibodies) or 2 hours (free steroids) before cell harvest, 10 ng/mL LPS 18 hours)	effect on in vivo LPS-induced cytokine production in serum (Msr1^hu/hu ApoE^−/− mice)	RAW264.7 MFI [3]	RAW264.7 S/N [3]	signal to noise (S/N), MFI over unstained sample MFI [3]
H1H21234N-N297Q-LP13 (conjugate) VH: QVQLQESGPGLVKPSETLSLTCTVTGGSISRNYWSWIRQPPGKGLEWIGYIYYSGSIDYNPSLKSRVTISVDTSKNQFSLKLSSMTAADTAVYYCARDRWNWKYGMDVWGQGTTVIVSS VL: EIVLTQSPGTLSLSPGERATLSCRASQTVRNNYLAWYHQKPGQAPRLLIYGASSRATGIPDRFSGSGSGTDFTLTISRLEPEDFTVYYCHQYGNSPWTFGQGTKMEIKR	6.29	3.59	1.7	119.43	69.3	70.31	21.1 ± 1.38**** ng/mL	9.3 ± 1.7	0.26 ± 0.08*** ng/mL	6.3 ± 2.3* ng/mL	0.58 ± 0.06* ng/mL	50.7 ± 14.1* ng/mL	13.1 ± 1.1	0.47 ± 0.1** ng/mL	efficacious in inhibiting LPS-induced cytokine production by peritoneal cells in a time-dependent manner	efficacious in inhibiting in vivo LPS-induced cytokine production in a dose-dependent manner			
H1H21227N-N297Q: "modified versions of 21227N (H1H21227N-N297Q and H1H21227N-N297D)"; anti-MSR1 antibody "with a N297Q single point mutation" (antibody, V domains shown) VH: QVQLVQSGAEVKKPGASVKVSCKVSGYTLTELSIHWVRQVPGKGLEWMGGFDPEEGETIFAQEFRDRVTLTEDTSPDTAYMELSSLKSEDAAVYYCTTPRYCNNGICYDYWGQGTLVTVSS VL: DIQMTQSPSSLSASVGDRVTITCRASQSISNYLNWYQQKPGKAPKLLIYTASSLQSGVPSRFSGSGSGTDFTLTISSLQTEDFATYYCQQSYSNFPITFGQGTRLEIKR																	12810	5	5
